# Source: the DeepSol protein solubility set
# Test: soluble on expression in E. coli; label from the status in PepcDB or PDB records
row,Sequence,soluble on expression in E. coli
1,MSETGTRISPLFSHRRWKLQVLDLQDVCENFWMVWSEAMARGCFLNAKRNKKPVQDCPRMRGRQPLTVFVELWLKNRTLDEHLTCLLLWVKQRKDLLHLCCKKLKILGMPFRNIRSILKMVNLDCIQEVEVNCKWVLPILTQFTPYLGHMRNLQKLVLSHMDVSRYVSPEQKKEIVTQFTTQFLKLHCLQKLYMNSVSFLEGHLDQLLSCLKTSLKVLTITNCVLLESDLKHLSQCPSISQLKTLDLSGIRLTNYSLVPLQILLEKVAATLEYLDLDDCGIIDSQVNAILPALSRCFELNTFSFCGNPISMATLENLLSHTIILKNLCLELYPAPRESYGADGTLCWSRFTQIRAELMKRVRDLRHPKRILFGTDYCPDCGNRSFYDLEADQYCC,not soluble
2,MSCDGGKPAPAKLGDEQLAELREIFRSFDQNKDGSLTELELGSLLRSLGLKPSQDQLDTLIQKADRNNNGLVEFSEFVALVEPDLVKCPYTDDQLKAIFRMFDRDGNGYITAAELAHSMAKLGHALTAEELTGMIKEADRDGDGCIDFQEFVQAITSAAFDNAWG,soluble
3,YDPSKDPSSSLARRNLIIGLMEKAGFITHAQAVRAKATPLVLHYTPVTQQGLAPYFTEYIRQTIKSSSMLEGVNVYRDGL,not soluble
4,MGSDKIHHHHHHMSNESCKDGKIWAYLKNINVYIDQNKILSDINLNLRYGENILILGPNGSGKSTFLKLLNRSIYPITTKDSSFKLFNKENINIWDLRKKIGFLFKEMEQRVNNGVTLYDVISSGFSGIFNSKYTNLLSESKKIKINNLINTWELGDIIYNEFQTLSDGQKRRALLARALVYEPNILVLDEPFCNLDLKSNIILNQNLNELIKHSVNLIYVTHNVESILPKTNRVILIKEGKILNDGSPSELINTKTLSDLFNISIKVIEQEGYWRMIPLSS,not soluble
5,SLGSQGSGLEQSSFQWSPSGRRTGSLYCRVGIGFHLQIYPDGKVNGSHEANMLSVLEIFAVSQGIVGIRGVFSNKFLAMSKKGKLHASAKFTDDCKFRERFQENSYNTYASAIHRTEKTGREWYVALNKRGKAKRGCSPRVKPQHISTHFLPRFKQSEQPELSFTVTVPEKEG,soluble
6,MGSDKIHHHHHHMAILNISELEQVEKFRQLQLTLRDRWKTIESFDNSEADILIIPSLSIDQRELQKIEGCEHYEERLLFSLIRLQNPRTRLIYVTSVPLHPSIIDYYLQLLPGIPFSHARNRLLLLSTYDSSLKPLSQKILERPRLLERIHQSLRLDKSFMICYNSSHWEGELSLKLGVPLYAAAPDLQIWGTKSGSRQIFKGSGVPHPDGSEKIWNHTDLAEATSDLWERQPTLKRVVVKLNEGISGEGNALLDLRPIENLAPGIGTHAQRVAAISDRFSTMRFQAKLETWDNFSGRIPELGAIAEAFVEGEIKRSPSVQGRITPTGEVEILSTHDQILGGPDGQIYLGCRFPADESYRLQLQQLGLQVGRTLAEKGTLERFGVDFIAVDKGNGEWDIQAIEINLRKGGTTHPFMTLKLLTNGRYDLSTGLFYSQQGRPKYYIATDNLQKERYQGLLPNDLMDIIAHHRLHFDSGTETGTVFHLMGCLSQFGKLGLTSIGDSPQQAQDIYNKVVKVLDEETRSENRDFSAFSDYSFPVAWDEYR,not soluble
7,SNAMKKGTVLNSEISSVISRLGHTDTLVVCDAGLPIPNSTARIDMALTQGVPSFMQVVDVVTREMQVEAAILATEIKQQNPQLHETLLTHLEQLQQHQGNTIKISYTTHEQFKKLTADSQAVIRSGECSPYANVILCAGVTF,soluble
8,MGSDKIHHHHHHMEIEAVEKEAIEKLSKISNVQELESFRIEFLGKKGKITGLMKNLKNLPPEERPAYGKRVNELREKIEKLFEEKRQQIQRILEQEKMEKMRIDVTVPGARRKLGHSHPVLKVMEEIERIFVSMGFDVVEGPEIETTWHNFDALNTPEWHPARDEHDSFYITDDLLLRTHTSPVQIRTMLERKPPIAIISPGKVYRRDYDATHLPMFHQVEGLHVDRDLSVAHLKFTLEEFARRMFGEGAKVRLRPSFFPFTEPSFEVDVYLSGYGWLEILGAGMVDPNVFLNVGYDPEEWTGYAFGMGVERIAMLKYGIADIREFVRNDVRFLSSY,not soluble
9,MYYADSSPALVGLIALNARLHGIRADVVDFMAASTPAGEQAISHVYLPFSVAGVPSTFLVSM,not soluble
10,MSAIKEVKSELRQFMKTLLGKISKEETQRQTEAVFEKIIESKWFQESKRLSVYVSTSGEIQTDSIIQKALEMGKEVFIPQFTKGSTAMDMVRVPDQTAFDNLPSTLWGIRQPEPKWKWQSYHETGPLDLILAPGVAFSPYGLRCGHGKGYYDRFFSTHHKHFPENSPKKIGLALREQIIGTIPISETDVELDEVIYEGETIIFDTI,soluble
11,MGSDKIHHHHHHMENLIFDIGFHKGEDTLFYLLKGYRVIAVDADPDLINEWQNIFKKYIENGKLLLLNYVISDTNDVDTDFYIGPNTIWSSTKVSISSRMCCKAIKKKIKSKRLDHLFHEYGTPFYCKIDIEGNDIIALQTMEKVSEKPLYISVETECIGEDEDIAGHELDTLNALYQLGYRKFKLVDQRTLTVLDYNCFYKNNSEHNWFEQIETNCKYAEELIVLSDTDQRVKFTDFFPGSSGPFGEELAGKWYDYPQAKEMLKKHREDKMRLNEPAWTFWCDWHATF,not soluble
12,MGSDKIHHHHHHMSLASVFNIAGSGMSAQSTRLNTVASNIANAETVSSSVDKTYRARHPVFSTMFQQAQGDSGSLFADQDSSGAGVQVLGIVEDQSSLMPRYEPNHPAADANGYVYYPNVNVVEEMADMISASRAFQTNAEMMNTAKQMMQKVLTLGQ,not soluble
13,MDQKRLTHLRQLEAESIHIIREVAAEFANPVMLYSIGKDSSVMLHLARKAFYPGTLPFPLLHVDTGWKFREMYAFRDRTANAYGCELLVHKNPEGVAMGINPFVHGSAKHTDIMKTEGLKQALNKYGFDAAFGGARRDEEKSRAKERIYSFRDRFHRWDPKNQRPELWRNYNGQINKGESIRVFPLSNWTEQDIWQYIWLENIDIVPLYLAAERPVLERDGMLMMVDDDRIDLQPGEVIKKRMVRFRTLGCWPLTGAVESHAQTLPEIIEEMLVSTTSERQGRMIDRDQAGSMELKKRQGYF,not soluble
14,MGSDKIHHHHHHMKDSDILMLAEEGESTSEASARKKALLLGRQLGLASEQEYRPANASIAERAQHRARKLSSQYQANVETIFALALSYTPSDVTGVDLDPDWSHQFFLMAEQIHNRRMQDLWARILSSEIVNPGNFSLRTLALLKQLTHREAQILEKALGMAAKVNSEQRLKLISGYRLSGGIGQYFRKTTSVNLGLSQFGLPYSSILTLVDAGILHSSEFETGLLNNKTPIQFALQGIQMKLTPKSGNLLFSYYRFTPIGDELAQLVQPKPDQEYLKALQLLFAKDFKIE,not soluble
15,MGSDKIHHHHHHMFVQARIDTTQDALVWPVVEFQGWVAFFGQRDSFDVYLNGDRVDNVHTVARPDVEEVLGAGWASIGWHVVCDIGQSARDNGHAIIFDVRVRTQTVAQGCFRYKDRLETTTQPLKIILHMPKTGGTSLRLALEEHRKNLFLLPLYHRDFSAIKSLSSLSVDRLDVAYGHVLYGIHEQIARPVTYMTVLRNPYDFVTSLYFFAKYVQRDHSILAAENIVDAVNTVNRPEFDNYYTRTIAGIQPEEPVTEEDLQRAIKNIDTHFSFIGLAERSRQSFRIFSEVFGLPLRYLKENVTPDLVEREFMNFRSVNEEIKKCINLDLILYKYAIKKFWYMDIE,not soluble
16,MTNYKIDFSKGLVPAILQDNQTKQVLMLGYMNQEAFDKTIEDGVVCFYSRSKQRLWTKGETSGHTQRVKDIHVDCDNDTILIDVIPNGPTCHTGSQSCFNTEVPFSVQTLAQTVQDSAQSNNEKSYTKYLLTEGIEKITKKYGEEAFEVVIEAIKGDKKAFVSEVADELYHLFVLMHALGVDFSEIEAELARRHHKRNNFKGERQNIEQWLEHHHHHH,not soluble
17,MSLPMLQVALDNQTMDSAYETTRLIAEEVDIIEVGTILCVGEGVRAVRDLKALYPHKIVLADAKIADAGKILSRMCFEANADWVTVICCADINTAKGALDVAKEFNGDVQIELTGYWTWEQAQQWRDAGIGQVVYARSRDAQAAGVAWGEADITAIKRLSDMGFKVTVTGGLALEDLPLFKGIPIHVFIAGRSIRDAASPVEAARQFKRSIAELWG,soluble
